# Measured values from patent US20240117018A1.
# Key:
# Experiment in all cases: cell-based or functional assay
# [1] = biological target: HIV-1 Env pseudovirus 231965.c01 (HIV-1)
# [2] = biological target: HIV-1 Env pseudovirus 231966.c02 (HIV-1)
# [3] = biological target: HIV-1 Env pseudovirus 620345.c01 (HIV-1)
# [4] = biological target: HIV-1 Env pseudovirus 6540.v4.c1 (HIV-1)
# [5] = biological target: HIV-1 Env pseudovirus C1080.c03 (HIV-1)
# [6] = biological target: HIV-1 Env pseudovirus C4118.c09 (HIV-1)
# [7] = biological target: HIV-1 Env pseudovirus T250-4 (HIV-1)
# [8] = biological target: HIV-1 Env pseudovirus T251-18 (HIV-1)
# [9] = biological target: HIV-1 Env pseudovirus X1193_c1 (HIV-1)
# [10] = biological target: HIV-1 Env pseudovirus X1632_S2_B10 (HIV-1)
# [11] = biological target: Env of HIV-1 pseudovirus 1012_11_TC21_3257 (HIV-1)
# [12] = biological target: Env of HIV-1 pseudovirus 191084 B7-19 (HIV-1)
# [13] = biological target: Env of HIV-1 pseudovirus 191955_A11 (HIV-1)
# [14] = biological target: Env of HIV-1 pseudovirus 246F C1G (HIV-1)
# [15] = biological target: Env of HIV-1 pseudovirus BF1266.431a (HIV-1)
# [16] = biological target: Env of HIV-1 pseudovirus CAAN5342.A2 (HIV-1)
# [17] = biological target: Env of HIV-1 pseudovirus CAP210.2.00.E8 (HIV-1)
# [18] = biological target: Env of HIV-1 pseudovirus CAP45.2.00.G3 (HIV-1)
# [19] = biological target: Env of HIV-1 pseudovirus CNE19 (HIV-1)
# [20] = biological target: Env of HIV-1 pseudovirus CNE53 (HIV-1)
# [21] = biological target: Env of HIV-1 pseudovirus Ce1176_A3 (HIV-1)
# [22] = biological target: Env of HIV-1 pseudovirus Ce2060_G9 (HIV-1)
# [23] = biological target: Env of HIV-1 pseudovirus Du156.12 (HIV-1)
# [24] = biological target: Env of HIV-1 pseudovirus HIV-16055-2.3 (HIV-1)
# [25] = biological target: Env of HIV-1 pseudovirus Q23.17 (HIV-1)
# [26] = biological target: Env of HIV-1 pseudovirus Q461.e2 (HIV-1)
# [27] = biological target: Env of HIV-1 pseudovirus Q842.d12 (HIV-1)
# [28] = biological target: Env of HIV-1 pseudovirus T250-4 (HIV-1)
# [29] = biological target: Env of HIV-1 pseudovirus ZM197M.PB7 (HIV-1)
# [30] = biological target: Env of HIV-1 pseudovirus ZM247v1(Rev-) (HIV-1)
substance,measurement,setting,value
3BNC117 (antibody),IC50 (Titer in TZM.bl cells),[1],0.05 µg/mL
same,IC80 (Titer in TZM.bl cells),[1],0.22 µg/mL
same,IC50 (Titer in TZM.bl cells),[2],0.29 µg/mL
same,IC80 (Titer in TZM.bl cells),[2],2.37 µg/mL
same,IC50 (Titer in TZM.bl cells),[3],> 15 µg/mL
same,IC80 (Titer in TZM.bl cells),[3],> 15 µg/mL
same,IC50 (Titer in TZM.bl cells),[4],> 50 µg/mL
same,IC80 (Titer in TZM.bl cells),[4],> 50 µg/mL
same,IC50 (Titer in TZM.bl cells),[5],0.25 µg/mL
same,IC80 (Titer in TZM.bl cells),[5],1.73 µg/mL
same,IC50 (Titer in TZM.bl cells),[6],0.09 µg/mL
same,IC80 (Titer in TZM.bl cells),[6],0.52 µg/mL
same,IC50 (Titer in TZM.bl cells),[7],> 15 µg/mL
same,IC80 (Titer in TZM.bl cells),[7],> 15 µg/mL
same,IC50 (Titer in TZM.bl cells),[8],0.26 µg/mL
same,IC80 (Titer in TZM.bl cells),[8],0.82 µg/mL
same,IC50 (Titer in TZM.bl cells),[9],0.06 µg/mL
same,IC80 (Titer in TZM.bl cells),[9],0.25 µg/mL
same,IC50 (Titer in TZM.bl cells),[10],15.7 µg/mL
same,IC80 (Titer in TZM.bl cells),[10],> 50 µg/mL
8ANC195 (antibody),IC50 (Titer in TZM.bl cells),[1],2.36 µg/mL
same,IC80 (Titer in TZM.bl cells),[1],2.36 µg/mL
same,IC50 (Titer in TZM.bl cells),[2],0.54 µg/mL
same,IC80 (Titer in TZM.bl cells),[2],2.98 µg/mL
same,IC50 (Titer in TZM.bl cells),[3],> 50 µg/mL
same,IC80 (Titer in TZM.bl cells),[3],> 50 µg/mL
same,IC50 (Titer in TZM.bl cells),[4],> 50 µg/mL
same,IC80 (Titer in TZM.bl cells),[4],> 50 µg/mL
same,IC50 (Titer in TZM.bl cells),[5],0.17 µg/mL
same,IC80 (Titer in TZM.bl cells),[5],1.12 µg/mL
same,IC50 (Titer in TZM.bl cells),[6],0.2 µg/mL
same,IC80 (Titer in TZM.bl cells),[6],0.71 µg/mL
same,IC50 (Titer in TZM.bl cells),[7],> 50 µg/mL
same,IC80 (Titer in TZM.bl cells),[7],> 50 µg/mL
same,IC50 (Titer in TZM.bl cells),[8],1.51 µg/mL
same,IC80 (Titer in TZM.bl cells),[8],1.51 µg/mL
same,IC50 (Titer in TZM.bl cells),[9],0.27 µg/mL
same,IC80 (Titer in TZM.bl cells),[9],1.66 µg/mL
same,IC50 (Titer in TZM.bl cells),[10],0.47 µg/mL
same,IC80 (Titer in TZM.bl cells),[10],4.11 µg/mL
10-1074 (antibody),IC50,[11],0.008 µg/mL
same,IC80,[11],0.059 µg/mL
same,IC50,[12],0.032 µg/mL
same,IC80,[12],0.128 µg/mL
same,IC50,[13],> 50 µg/mL
same,IC80,[13],> 50 µg/mL
same,IC50,[14],0.022 µg/mL
same,IC80,[14],0.111 µg/mL
same,IC50,[15],> 50 µg/mL
same,IC80,[15],> 50 µg/mL
same,IC50,[16],0.007 µg/mL
same,IC80,[16],0.036 µg/mL
same,IC50,[17],> 50 µg/mL
same,IC80,[17],> 50 µg/mL
same,IC50,[18],> 50 µg/mL
same,IC80,[18],> 50 µg/mL
same,IC50,[19],50 µg/mL
same,IC80,[19],> 50 µg/mL
same,IC50,[20],0.039 µg/mL
same,IC80,[20],0.141 µg/mL
same,IC50,[21],0.019 µg/mL
same,IC80,[21],0.07 µg/mL
same,IC50,[22],> 50 µg/mL
same,IC80,[22],> 50 µg/mL
same,IC50,[23],0.015 µg/mL
same,IC80,[23],0.076 µg/mL
same,IC50,[24],> 50 µg/mL
same,IC80,[24],> 50 µg/mL
same,IC50,[25],0.006 µg/mL
same,IC80,[25],0.021 µg/mL
same,IC50,[26],> 50 µg/mL
same,IC80,[26],> 50 µg/mL
same,IC50,[27],> 50 µg/mL
same,IC80,[27],> 50 µg/mL
same,IC50,[28],< 0.001 µg/mL
same,IC80,[28],0.005 µg/mL
same,IC50,[29],> 50 µg/mL
same,IC80,[29],> 50 µg/mL
same,IC50,[30],0.042 µg/mL
same,IC80,[30],0.186 µg/mL
